Laboratory results published in the RNAGym collection of RNA variant scans (doi:10.7554/elife.90254).

B1: LINE1-full (parent)
chain: UACGUAGGUGGUUUUCCCCUGAUAGUGCUAAGGGGGCCUGGAAGUUUGGACUGGGCAGAGCUCAACACAGCGUGGCAAAGUGGCUGUGGCUAGACUGCCUCUCUGGAUUCCUCGUCACUCAGCAGGGCAUCUCUGAGAGAAAUGCC

Variants of: B1
Assay: self-cleavage, relative activity (ratio to wild type); higher = more cleavage; in vitro, sequencing; the parent is a self-cleaving ribozyme

Variant | self-cleavage
U5C A140U | 0.86
U26A A79G | 0.75
U81A A136G | 1.9
A42U U52A | 1.2
A22G A129C | 0.27
G93A A121U | 0.06
U87C U104C | 0.22
C3U C123U | 0.63
C37U U104A | 0.59
A50U A121G | 1.09
G32A A121G | 1.53
U45C A78U | 1.43
A57G G126A | 1.19
G8A A59G | 0.16
A92G U112C | 0.13
U46C A59G | 0.16
A79U U104C | 2.47
U20C C95A | 0.09
A6U A69G | 0.89
G106A U134C | 1.08
G80A | 1.93
A2G U85A | 0.25
A64G U108A | 0.12
A42G A78G | 1.49

Variant | self-cleavage
U45G U47A | 1.19
U73A U104A | 1.09
A69G U109A | 0.43
G53U G70C | 0.14
U13G U100A | 0.77
C56U A77G | 0.16
A124G A140G | 0.24
U15C C56U | 0.23
U100C A129U | 1.92
A57G G75A | 0.73
A43G C146U | 1.69
U14C U100A | 0.9
G106U U130C | 1.29
A57G C101U | 1.13
A77G U132C | 2.73
A65U A138G | 0.24
U12A U134A | 0.6
U29C G55C | 0
U14A U104A | 1.16
A64U G72C | 0.25
U119C U130C | 1.72
G72A A92U | 0.69
U5A A129U | 1.47
A43U U81C | 1.26

Variant | self-cleavage
A43U A77U | 1.02
G53A C128U | 1.34
A78G U119C | 1.55
A78G U112C | 1.24
U132A | 1.32
U91C A140G | 0.75
U100A A129G | 1.49
U20A A78G | 1.39
A30U U132A | 1.22
A24U A107G | 2.24
U81C U115G | 1.1
A67G U96A | 0.06
G54C A117U | 1.23
G35U A79G | 1.22
U13C G35A | 1.13
C51U A69G | 0.66
A57G G106A | 1.04
U119C U134A | 1.92
U5A A22G | 0.73
U9C U12C | 1.13
A67G U100C | 0.4
G48A A94U | 0.18
U23G U87A | 0.11
G25A A141G | 0.96

Variant | self-cleavage
A67G A94G | 0.09
G40U G139A | 1.17
G27A A67G | 0.45
A30G A57G | 1.39
U45A U100C | 1.05
U47C U109C | 1.61
U14A A67U | 0.1
U112C G127A | 1.35
G55A U112C | 0.14
U15A G32A | 0.66
A42U A129G | 1.34
U102C U109C | 1.38
G35U U81A | 1.82
A50G U73C | 1.31
U46C G54A | 1.21
G55C C76A | 0.1
A69U C120U | 0.07
U13C G53C | 2.02
G34A U102A | 1.16
A121G A129U | 1.59
C66U U96A | 0.02
A59G U85G | 0.14
U115C A142G | 2.05
U23C U52A | 1.39

Variant | self-cleavage
U26C U91C | 0.73
A43U A65G | 0.02
A59G C71U | 0.04
G126U U134A | 0.84
U13C C71A | 0.24
U20G U109G | 0.43
A2U U23C | 0
A65U U81C | 0.19
U20C U115C | 1.57
U112A U134C | 1.56
A129G G144A | 1.66
U62C A129C | 0.19
U13C C110U | 1.43
U20A U46C | 1.49
U104A A140U | 1.03
U46C U47C | 1.95
U87A U130A | 0.09
U29A U119G | 1.31
C84U U143C | 0.1
U20C U119C | 1.35
A24G U46C | 1.74
U12C C19A | 0.85
G7U U45C | 0.86
G32U C113U | 0.49

Variant | self-cleavage
A31G U143C | 1.04
G60A U96C | 0.01
A6U U62A | 0.06
C19U A64G | 0.25
G40A U73A | 0.81
C28A G32C | 0.96
A121C | 1.51
U20A G41U | 0.96
A65G A142C | 0.08
U20A A124G | 0.76
U52A U100C | 1.96
U45C C90U | 0.08
U26C A31G | 0.91
U52C C56U | 0.11
U62C U96G | 0
C111A A141U | 1.14
U96A U132C | 0.12
G21A G135A | 1.22
G21A C145U | 0.32
U1A U100C | 1.18
G82A U96A | 0.05
U62G U104C | 0.08
U1A G72A | 1.55
G89A A141G | 0.02

Variant | self-cleavage
A22U A64G | 0.3
A42C U134C | 1.31
U102C A141G | 1.39
U14A A140U | 1.43
G55A A121G | 0.26
C18A G34A | 1.01
A24G A64U | 0.47
C19U A138U | 1.24
U26C G127A | 1.37
G49A U143C | 1.09
U73C A141G | 1.62
C16A C38U | 1.45
U9G A140G | 0
U9C C76G | 2.04
U14A A31G | 0.89
A6G U130A | 1.18
G35C A65G | 0.04
U26C U39C | 0.9
U108C U143G | 1.23
U73C A142G | 1.82
C71U C101A | 1.14
A78U U134C | 2.05
U13C U132C | 1.2
C71U A124U | 1

Variant | self-cleavage
C63U U85G | 0.1
U26A U73A | 1.24
C63U G74A | 0.22
G35A A69U | 0.02
G35A A69G | 0.21
C38U A136G | 1.89
U15C G34C | 1.59
G114A A121G | 1.32
U13C G55C | 0.25
U20C C146U | 1.27
U85C U134G | 0.14
A31C U85C | 0.54
A30U U46C | 1.12
C17U A138C | 1.12
A30C A107G | 2.06
U9A U96A | 0.08
U26A G33U | 0.62
C37A G88U | 0
C17U U20G | 0.57
G8A A77U | 1.23
U46C U62A | 0.05
U12G A142C | 0.93
U15A U134C | 1.19
U1C A57U | 0.09

Variant | self-cleavage
U23A U85A | 0.08
A2G U13C | 0.64
G49C A141U | 1.55
U20A U26A | 1.23
C66G A117G | 0.08
G32A G86U | 0.12
U73C U85G | 0.21
A65U A129U | 0.18
C16U A140G | 0.99
U13C A59U | 0.86
A67G A136C | 0.38
U29A U47A | 1.6
U20C C110A | 0.41
G35U A138G | 1.47
U23A U109A | 1.33
A59G A69U | 0.06
A50G G144C | 0.83
C123G | 1.36
C3U U52C | 1.31
G35U A117U | 1.04
U9A U14A | 1.03
G25C C116U | 1.52
G86U G105A | 0.06
U9G A64C | 0.18

Variant | self-cleavage
G36U A141G | 0.91
A78C U91C | 1.24
A31U A136U | 0.55
U5A U100C | 0.82
A59U A78G | 0.68
A22G G83U | 0.58
U62G A129G | 0.15
G34U C146U | 1.39
G34A U46A | 1.2
U13A A69C | 0.08
C113U A142G | 0.91
A64G G125A | 0.31
U45A A78G | 1.11
A24G G93A | 0.13
U39C A136G | 1.43
U52C U119A | 1.16
A64G U130C | 0.33
A57U G125A | 0.04
U9C A124U | 1.26
A59G A107G | 0.09
U14C G139U | 1.63
U5C U23C | 0.83
U9G U45C | 0.25
U23C A42C | 0

Variant | self-cleavage
C113G C123U | 1.01
U62C G72C | 0.03
U14A A138G | 1.15
G33A A136G | 1.35
A6G U132C | 0.9
A79U A136G | 1.96
U62C C120U | 0.06
A77C G114A | 0.63
A57U U119C | 0.06
U15C C98U | 0.33
A140G G144U | 1.05
A42G A140C | 0.93
U62C G97A | 0.03
G93A U119C | 0.04
U104A A141G | 1.43
G35U U102A | 1.8
G74A U104A | 0.75
A50G U130A | 0.83
A94G U115C | 0.45
A67U A140G | 0.09
A24U A117G | 0.54
A64G U112G | 0
A22G A57U | 0.2
U81A U134G | 0.65

Variant | self-cleavage
G32A U108C | 0.76
U46A G137A | 0.98
U9A C90U | 0
C116U A121G | 1.57
A117C U119G | 2.43
G72C A77G | 2.28
U109C A142U | 1.49
U87G A142G | 0.25
A136C A140G | 1.53
G60U A138G | 0.04
C3U U20A | 0.83
U14C G48A | 1.12
U62C U108G | 0
U20C U143C | 1.29
A22C U46A | 2.21
U102C | 1.29
A117U G126C | 1.47
U14C A67G | 0.61
G34A A78U | 1.75
A67G A129U | 0.04
A50U U109A | 0.78
C110U G126A | 1.34
U39A G88A | 0.08
U20C U39G | 0.8

Variant | self-cleavage
U13C U119C | 1.54
U100C U130C | 2.16
U15A A117G | 1.24
U39C G137A | 1.09
C68U U112C | 0.06
U39A A79G | 1.35
G7C G40A | 1.27
U45A U102C | 1.45
U39C U81C | 1.45
U9A U13A | 1.12
U9C U46C | 1.08
G25A A65C | 0.02
A59U A124G | 0.75
A69G A79C | 0.17
U20C A138G | 1.55
C28U U119C | 1.12
U46G G72A | 1.07
A69G A140U | 0.47
A6G U100C | 0.87
U15C U130A | 1
U52A C110G | 1.15
U9G A124C | 0
C19U C120U | 1.25
C38A A43G | 0.59

Variant | self-cleavage
U108C A121G | 1.68
A121G A138U | 1.59
C61U A124G | 0.04
U9A U47C | 1.37
A31U U104A | 1.15
U12A U73A | 1.47
A57G C128U | 0.79
G48A G144U | 1.46
G11A C51U | 1.38
U9C U45C | 1.27
U12C A107U | 0.66
A24G A67G | 0.45
A79G U87A | 0.06
A121U A129U | 1.41
C28U A64G | 0.16
C84G | 0.09
U62A C71U | 0
C71A A77G | 0.18
U26C A124G | 0.64
U20G A107G | 0.72
A67G A92G | 0.09
U14C C128U | 0.2
